Assay results reported in the nanobody polyreactivity screen of Harvey et al. (2022).

Assay: yeast display, Sf9 membrane polyspecificity reagent, FACS + sequencing; frameworks hold sequencing errors
In short: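 Nanobodies came from a synthetic yeast display library in Saccharomyces cerevisiae BJ5465, induced with galactose for 36–48 hours and stained for 1 hour at 4 °C with 10% biotinylated, detergent-solubilized Sf9 membrane reagent. Cells were enriched on streptavidin microbeads and then FACS-sorted, with low and high (top ~1%) gates set on anti-HA fluorescence for expression and streptavidin fluorescence for reagent binding. Each polyreactivity label reflects the gate a clone came from. Genes were amplified by colony PCR, sequenced by MiSeq 2 × 250 and filtered by CDR length.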

Row | Sequence | polyreactivity (PSR sort gate)
1 | QVQLVESGGGLVQAGGSLRLSCAASGSTFAFNAMGWYRQAPGKERELVASISGSGSSTYYADSVKGRFTISRDNAKNTVYLQMNSMKPEVTAVYYCDARVGARVSPPRRHGRFNYWGQGTQVTVSS | high polyreactivity
2 | QVQLVESGGGLVQAGGSLRLSCAASGSIYYYAMGWYRQAPGKERELVAVITSRGGSTNYADSVKGRFTISRDNAKNTVYLQMNSLKPQDTAVYYCNADYYRYYSITYGGDYWGQGTQVTVSS | high polyreactivity
3 | QVQLVESGGGLVQGGGSLRLSCAASGSTFAVYDMGWYRPAPGKERELVAAITVSGSSTHYADSVKGRFTISRDNAKNTVYLQMNSLKPEDTAVYYWGQGTQVTVSS | low polyreactivity
4 | QVQLVESGGGLVQAGGSLRLSCAASGLTFYTYAMGWYIQAPGTERELVAAISSGGSTNYADSVKGRFTISRDNAKNTVYLQMNSLKPEDTAVYYCAADPSYYTYFSFDLSESDYWGQGTQVTVSS | low polyreactivity
5 | QVQLVESGGGLFQAGGSLRLSCAASGFTFYRNAMGWYRQAPGQERELVAAITRGGSTTYADSVKGRFTISRDNAKNTVYLQMNSLKPEDTAVYYCAKGARADVPGYYKYYYWGQGTQVTVSS | high polyreactivity
6 | QVQLVESGGGLVQAGGSLRLSCAASGRTLGYKAMVWYRQAPGKERELVAAISWSGGATYYADSVKGRFTISRDNAKNTVYLQMNSLKPEDTAVYYCAALNNRYPLYNYWGQGTQVTVSS | low polyreactivity
7 | QVQLVESGGGLVQAGGSLRLSCAASGRISWVYAKGWYRQPPGKERELVAAITFSGGSTYYADSVKGRFTISSDNEKNTVYLQMNSLKPEDTAVYYCAADVLAIYSHRYYRYDSWGQGTQVTVSS | high polyreactivity
8 | QVQIVESRVGLVQAGGSLRLSCAAYGSIFYYNAMGWYRQAPGKERELVAAITSSGGSTYADSVKGRFTISRDNAKNTVYLQMNSLKQEDTAVYYCATVAHGLWSGSGYIYAYDYWGQGTQVSVSS | low polyreactivity
9 | QVQLVESGGGLVQAGGSLRLSCAASGFTSDGYAMGWYRQAPGKERELVAAISWRGGSTYYADSVKGRFTISRDNAKNTVYLQMNSLKPEDTAVYYCAKDYYYGLEHYGYWGQGTQVTVSS | low polyreactivity
10 | QVQLVESGGGLVQAGGSLRLSCAASGSIHFEYMGWYRQAPGKERELVAAITIRDGGTYYADSVKGRFTISRDNAKNTVYLQMNSLKPEDTAVYYCNADFSGGWRYDYWGQGTQVTVSS | low polyreactivity
11 | QVQLVESGGGLVQAGGSLRLSCAASGSIFEYYAMGWYRQAPGKERELVAAITWSGGSTYYADSVKGRFTISRDNAKNTVYLQMNSLKPEDTAVYYCAKGYYVYGIFHRFGYYWGQGTQVTVSS | high polyreactivity
12 | QVQLVESGGGLVQAGGSLRLSCAASGRTFRFYAMGWYRQAPGKERELVAAISYSGGSTYYADSVKGRFTISRDNAKNTVYLQMNSLKPEDTAVYYCNARYRLGSPVGYNYYTGYDYWGQGTQVTVSS | high polyreactivity
13 | QVQLVESGGGLVQAGGSLRLSCAASGSIFYVYAMGWYRQAPGKERELVAAITSSGTTNYADSVKGRFTISRDNAKNTVYLQMNSLKPEDTAVYYCAADPDSGQVPFDYWGQGTQVTVSS | low polyreactivity
14 | QVQLVESGGGLVQAGGSLRLSCAPSGRTFWTNAMGWYRQAPGKERELVAAIRNSGGRTYYADSVKGRFTISRDNAKNTVFLQMNSLKPEDSAVYYCNARSSIRPRQGGYEHWGQGTQVTVSS | low polyreactivity
15 | QVQLVESGGGLVQAGGSLRLSCAASGIIFRSYAMGWYRQAPGKERELVAGISLSGGSTYYADSVKGRFTISRDNAKNTVYLQMNSLKPEDTAVYYCATRNHYFRALRYGYCGQGTQVTVSS | high polyreactivity
16 | QVQLVESGGGLVQAGGSLRLSCAASGRTFVPYAMGWYRQAPGKERELVATNNRSGGTTYYADSVKGRFTISRDNAKNTVYLQMNSLKPEDTAVYYCNKSPYYTVWSTRGNQFSRFYYWGQGTQVTVSS | high polyreactivity
17 | QVQLVESGGGLVQEVGSLRISCAASGRIFYVYSMGWYRQAPGKERELVAAITSGGRTDYADSVKGRFTISRDNAKNTVYLQLNSLKPEDTAVYYCAAGGGWNGHRHRWLYGYGYWGQGTQVTVSS | high polyreactivity
